Assay results from the Human Domainome abundance scans (Beltran et al. 2025).
± gives the uncertainty stated by the source.

B1: POU domain, class 3, transcription factor 4, residues 280 to 335; numbered along this chain, P49335 (parent)
chain: KKRTSIEVSVKGVLETHFLKCPKPAAQEISSLADSLQLEKEVVRVWFCNRRQKEKR

Variants of: B1
Experiment: abundance fitness (aPCA) (normalised: wild type 0, dead -1); higher = more abundant; growth selection in yeast, the domain comes from the species named
Conditions: Homo sapiens
Work on E15N yielded an abundance fitness of -0.885 ± 0.26. Variant E41G has an abundance fitness of -0.709 ± 0.14. For E41I, the abundance fitness was -0.828 ± 0.31. Variant E41P has an abundance fitness of -0.831 ± 0.25. In the case of E41R, the abundance fitness is reported as -0.637 ± 0.14. Work on E41N yielded an abundance fitness of -0.189 ± 0.29. Work on E41Q yielded an abundance fitness of -0.792 ± 0.5. For E41K, the abundance fitness was -0.602 ± 0.21. E41W gave an abundance fitness of -0.852 ± 0.2. For A25M, the abundance fitness was -0.073 ± 0.19. Work on A25P yielded an abundance fitness of -0.31 ± 0.2. A25D gave an abundance fitness of 0.545 ± 0.18. Work on A25T yielded an abundance fitness of 0.495 ± 0.14. Work on A25H yielded an abundance fitness of -0.096 ± 0.27. L19Y gave an abundance fitness of -0.518 ± 0.29. L19D showed an abundance fitness of -0.363 ± 0.28. L19F gave an abundance fitness of -0.941 ± 0.3. Work on L19K yielded an abundance fitness of -0.461 ± 0.23. L19A showed an abundance fitness of -0.187 ± 0.14. With L19N the abundance fitness was -0.343 ± 0.24. For S31H, the abundance fitness was 0.219 ± 0.2. For S31I, the abundance fitness was 0.004 ± 0.18. For S31P, the abundance fitness was -0.913 ± 0.25. For S31W, the abundance fitness was -0.467 ± 0.2. For S31G, the abundance fitness was -0.398 ± 0.13. S31R gave an abundance fitness of 0.29 ± 0.13. Work on S31A yielded an abundance fitness of 0.006 ± 0.15. For S31V, the abundance fitness was 0.013 ± 0.17. S31N gave an abundance fitness of 0.182 ± 0.22. With S5K the abundance fitness was 0.226 ± 0.27. In the case of S5A, the abundance fitness is reported as 0.11 ± 0.13. S5N gave an abundance fitness of 0.216 ± 0.24. In the case of S5E, the abundance fitness is reported as 0.565 ± 0.17. S5H gave an abundance fitness of -0.187 ± 0.37. S5G gave an abundance fitness of 0.27 ± 0.12. In the case of S5D, the abundance fitness is reported as 0.405 ± 0.26. In the case of V13E, the abundance fitness is reported as -0.182 ± 0.26. For V13Q, the abundance fitness was 0.205 ± 0.35. With V13G the abundance fitness was -0.662 ± 0.18. Variant V13H has an abundance fitness of -0.407 ± 0.47. V13W gave an abundance fitness of -0.745 ± 0.27. V13M showed an abundance fitness of 0.18 ± 0.34. Work on V13F yielded an abundance fitness of -0.315 ± 0.4. In the case of V13A, the abundance fitness is reported as -0.082 ± 0.17. For V13L, the abundance fitness was -0.02 ± 0.26. Variant L38A has an abundance fitness of -0.744 ± 0.23. Work on L38M yielded an abundance fitness of -0.148 ± 0.16. L38V gave an abundance fitness of -0.269 ± 0.15. For L38E, the abundance fitness was -0.729 ± 0.29. In the case of L38S, the abundance fitness is reported as -0.815 ± 0.18. In the case of C21V, the abundance fitness is reported as -0.781 ± 0.16. Work on C21K yielded an abundance fitness of -0.725 ± 0.33. Work on C21S yielded an abundance fitness of -0.072 ± 0.12. Variant C21G has an abundance fitness of -0.724 ± 0.15. Work on C21R yielded an abundance fitness of -0.742 ± 0.15. Work on C21P yielded an abundance fitness of -0.483 ± 0.21. Work on C21Y yielded an abundance fitness of -0.898 ± 0.25. C21Q showed an abundance fitness of 0.265 ± 0.2. Work on C21M yielded an abundance fitness of -0.723 ± 0.21. With C21L the abundance fitness was -0.419 ± 0.12. V10C showed an abundance fitness of -0.486 ± 0.33. V10H showed an abundance fitness of -0.133 ± 0.26. In the case of V10S, the abundance fitness is reported as -0.587 ± 0.21. Variant V10I has an abundance fitness of 0.08 ± 0.2. Variant V10L has an abundance fitness of -0.472 ± 0.26. In the case of V10Q, the abundance fitness is reported as -0.193 ± 0.23. With V10N the abundance fitness was -0.279 ± 0.31. V10G showed an abundance fitness of -0.751 ± 0.21. Variant K40F has an abundance fitness of 0.195 ± 0.17. Variant K40D has an abundance fitness of -0.287 ± 0.27. In the case of K40E, the abundance fitness is reported as 0.192 ± 0.23. Work on K40G yielded an abundance fitness of -0.441 ± 0.16. In the case of K40A, the abundance fitness is reported as 0.026 ± 0.15. In the case of K40I, the abundance fitness is reported as -0.638 ± 0.27. Variant T4Y has an abundance fitness of -0.248 ± 0.22. In the case of T4S, the abundance fitness is reported as 0.213 ± 0.13. T4G gave an abundance fitness of -0.189 ± 0.12. For T4F, the abundance fitness was -0.26 ± 0.25. Work on T4I yielded an abundance fitness of 0.067 ± 0.3. Variant T4E has an abundance fitness of 0.034 ± 0.24. Work on K55V yielded an abundance fitness of -0.069 ± 0.13. Work on K55N yielded an abundance fitness of -0.147 ± 0.22. Variant K55G has an abundance fitness of -0.392 ± 0.13. K55C showed an abundance fitness of -0.017 ± 0.21. K55A showed an abundance fitness of -0.1 ± 0.17. K55S showed an abundance fitness of -0.368 ± 0.17. I29S gave an abundance fitness of -0.762 ± 0.29. E7S gave an abundance fitness of 0.528 ± 0.083. E7A showed an abundance fitness of -0.082 ± 0.11. For E7M, the abundance fitness was -0.191 ± 0.17. For E7Q, the abundance fitness was 0.013 ± 0.14. In the case of E7D, the abundance fitness is reported as 0.327 ± 0.14. In the case of E7W, the abundance fitness is reported as -0.014 ± 0.26. In the case of E7R, the abundance fitness is reported as -0.093 ± 0.095. Work on P24L yielded an abundance fitness of -0.753 ± 0.26. Variant P24H has an abundance fitness of -0.688 ± 0.47. L14R showed an abundance fitness of -0.792 ± 0.1. With L14V the abundance fitness was -0.788 ± 0.14. In the case of L14G, the abundance fitness is reported as -0.891 ± 0.12. For L14N, the abundance fitness was -0.564 ± 0.23. L14I gave an abundance fitness of -0.607 ± 0.17. L14Q gave an abundance fitness of -0.953 ± 0.2. In the case of L14K, the abundance fitness is reported as -0.655 ± 0.22. L14C gave an abundance fitness of -0.563 ± 0.15. Variant L14T has an abundance fitness of -0.537 ± 0.13. Work on R50Q yielded an abundance fitness of -0.88 ± 0.41. Variant R50G has an abundance fitness of -0.778 ± 0.14. R50Y gave an abundance fitness of -0.559 ± 0.34. For R50P, the abundance fitness was -0.87 ± 0.23. With R50C the abundance fitness was -0.769 ± 0.36. R50W gave an abundance fitness of -0.999 ± 0.34. In the case of R50T, the abundance fitness is reported as -0.693 ± 0.25. R50K gave an abundance fitness of -0.446 ± 0.2. For Q37C, the abundance fitness was -0.198 ± 0.27. Variant Q37K has an abundance fitness of -0.322 ± 0.48. With Q37D the abundance fitness was 0.043 ± 0.33. In the case of Q37N, the abundance fitness is reported as 0.071 ± 0.31. With Q37P the abundance fitness was -0.855 ± 0.33. Q37G showed an abundance fitness of 0.177 ± 0.21. Work on R56W yielded an abundance fitness of -0.393 ± 0.18. In the case of R56M, the abundance fitness is reported as 0.123 ± 0.24. In the case of R56A, the abundance fitness is reported as -0.085 ± 0.29. L36G gave an abundance fitness of -0.703 ± 0.33. With L36E the abundance fitness was -0.781 ± 0.39. Work on E39A yielded an abundance fitness of -0.515 ± 0.21. E39M showed an abundance fitness of -0.478 ± 0.29. In the case of E39C, the abundance fitness is reported as -0.411 ± 0.19. For E39V, the abundance fitness was -0.565 ± 0.18. In the case of E39D, the abundance fitness is reported as 0.122 ± 0.17. Variant I6L has an abundance fitness of 0.018 ± 0.083. Variant I6N has an abundance fitness of -0.249 ± 0.095. For I6Y, the abundance fitness was -0.613 ± 0.12. Work on I6C yielded an abundance fitness of -0.626 ± 0.13. Work on I6A yielded an abundance fitness of -0.437 ± 0.12. Variant S9L has an abundance fitness of -0.24 ± 0.35. With S9V the abundance fitness was -0.173 ± 0.15. Variant S9K has an abundance fitness of 0.237 ± 0.33. With S9E the abundance fitness was 0.443 ± 0.27. For S9A, the abundance fitness was -0.056 ± 0.19. With S9G the abundance fitness was 0.172 ± 0.2. With S9P the abundance fitness was -0.335 ± 0.48. In the case of R51W, the abundance fitness is reported as -0.221 ± 0.17. Work on R51E yielded an abundance fitness of -0.258 ± 0.16. R51L showed an abundance fitness of -0.305 ± 0.14. In the case of R51Y, the abundance fitness is reported as -0.193 ± 0.47. With R51V the abundance fitness was -0.424 ± 0.13. Work on V42R yielded an abundance fitness of -0.689 ± 0.14. Work on V42A yielded an abundance fitness of -0.552 ± 0.22. In the case of V42N, the abundance fitness is reported as -0.799 ± 0.41. For V42Q, the abundance fitness was -0.254 ± 0.24. For V42P, the abundance fitness was -0.874 ± 0.28. For V42S, the abundance fitness was -0.431 ± 0.17. For V42T, the abundance fitness was 0.207 ± 0.18. With V42D the abundance fitness was 0.216 ± 0.41. In the case of S35L, the abundance fitness is reported as -0.122 ± 0.11. For S35H, the abundance fitness was 0.345 ± 0.21. Variant S35Y has an abundance fitness of -0.364 ± 0.17. With S35C the abundance fitness was -0.383 ± 0.17. Work on K2H yielded an abundance fitness of -0.258 ± 0.23. Work on K2A yielded an abundance fitness of -0.433 ± 0.21. Work on K2R yielded an abundance fitness of -0.225 ± 0.17. Variant K2M has an abundance fitness of -0.201 ± 0.24. In the case of K2V, the abundance fitness is reported as -0.124 ± 0.15. With K2C the abundance fitness was -0.8 ± 0.31. In the case of G12S, the abundance fitness is reported as 0.298 ± 0.2. G12L showed an abundance fitness of 0.004 ± 0.24. With G12A the abundance fitness was -0.177 ± 0.41.
